Data as given in article PMC7221964, “Comparison of Molecular Recognition of Trimethyllysine and Trimethylthialysine by Epigenetic Reader Proteins” (Molecules, 2020).
Ends that are not written are not given here.

T1: KDM4A tandem tudor domain (TTD) reader (human, UniProt O75164 895-1011)
T1 construct: KDM4A, human, tandem tudor domain; also called KDM4ATTD
T1 sequence: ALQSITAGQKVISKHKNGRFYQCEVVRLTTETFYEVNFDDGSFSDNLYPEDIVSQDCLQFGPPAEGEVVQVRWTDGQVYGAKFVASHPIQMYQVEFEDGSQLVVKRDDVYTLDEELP

T2: KDM5A PHD3 reader domain (human, UniProt P29375 1609-1659)
T2 construct: KDM5A, human, third PHD zinc finger (PHD3)
T2 sequence: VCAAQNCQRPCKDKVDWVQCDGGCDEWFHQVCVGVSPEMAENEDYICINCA

T3: TAF3 PHD reader domain (human, UniProt Q5VWG9 855-915)
T3 sequence: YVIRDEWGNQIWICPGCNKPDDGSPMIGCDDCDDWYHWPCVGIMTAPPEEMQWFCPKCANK

T4: SGF29 tandem tudor domain (TTD) reader (human, UniProt Q96ES7 115-293)
T4 construct: SGF29, human, tandem tudor domain; also called SGF29TTD
T4 sequence: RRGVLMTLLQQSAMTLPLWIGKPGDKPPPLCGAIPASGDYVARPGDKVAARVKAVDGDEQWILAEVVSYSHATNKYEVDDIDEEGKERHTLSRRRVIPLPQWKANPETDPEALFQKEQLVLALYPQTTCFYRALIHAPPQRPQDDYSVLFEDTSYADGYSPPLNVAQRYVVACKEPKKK


Legend:
Experiment in all cases: ITC; 19 injections of histone peptide (0.3–1.2 mM) into reader protein (22–100 µM), 298.15 K, same buffer as used in size exclusion chromatography, one-site fit, 3–5 repeats
Conditions in all cases: both partners purified
[1] = biological target: T1, KDM4A tandem tudor domain (TTD) reader
KDM5A PHD3 reader domain = biological target: T2, KDM5A PHD3 reader domain
BPTF PHD reader domain = BPTF PHD reader domain (human, UniProt Q12830 2865-3033)
TAF3 PHD reader domain = biological target: T3, TAF3 PHD reader domain
[2] = biological target: T4, SGF29 tandem tudor domain (TTD) reader

Row | Binder | Kd [1] [nM] | dH [1] [kcal/mol] | Kd (KDM5A PHD3 reader domain) [nM] | dH (KDM5A PHD3 reader domain) [kcal/mol] | dH (BPTF PHD reader domain) [kcal/mol] | Kd (TAF3 PHD reader domain) [nM] | dH (TAF3 PHD reader domain) [kcal/mol] | Kd [2] [nM] | dH [2] [kcal/mol] | Kd (BPTF PHD reader domain) [nM]
1 | ARTKQTARKS (trimethyllysine (Kme3) at position 4, histone H3, residues 1-10, printed as ART(Kme3/KCme3)QTARKS; also called 1–10 H3K4me3; source: synthetic peptide (solid-phase peptide synthesis, preparative HPLC)) [10-mer histone H3 peptide bearing trimethyllysine at position 4 (H3K4me3)] | 6600 ± 800 | -13 ± 0.2 | 71 ± 8 | -10.7 ± 0.1 | -12.4 ± 0.1 | 84 ± 12 | -10.7 ± 0.1 | 2600 ± 300 | -8 ± 0.1 | –
2 | ARTCQTARKS (not fully specified (residue 4), histone H3, residues 1-10, printed as ART(Kme3/KCme3)QTARKS; position 4 is a cysteine alkylated to trimethylthialysine; The letter C at position 4 stands for the alkylated cysteine (trimethylthialysine), not a free cysteine; also called 1–10 H3KC4me3) [10-mer histone H3 peptide bearing trimethylthialysine at position 4 (H3KC4me3)] | 3100 ± 600 | -14.8 ± 0.2 | 150 ± 200 | -9.6 ± 0.1 | -9 ± 0.1 | 42 ± 7 | -10.8 ± 0.1 | 6100 ± 700 | -5.8 ± 0.1 | 3800 ± 500
